Reference: patent US20250136681A1

Target: IL-2 receptor (human)
Assay: cell-based or functional assay

Work on wild type recombinant IL-2 (ligand) yielded an EC50 of pSTAT5 increase on CD56brightCD16- NK cells (intracellular flow cytometry, human PBMCs) of 60 pM.
